From patent US20160199438A1 (Eli Lilly, published 2016)
Substitutions are numbered along the chain they refer to.

B1: Example 3 (peptide)
peptide: YXEGTFTSDYSIXLDKIAQKAFVQWLIAGGPSSGAPPPS
modifications: Aib at positions 2 and 13; K at position 20 conjugated at the epsilon-amino group with ([2-(2-Amino-ethoxy)-ethoxy]-acetyl)2-(γGlu)1-CO-(CH2)16-CO2H; C-terminal primary amide
notes: Synthetic acylated peptide, trifluoroacetate salt
B2: Example 4 (peptide)
peptide: B1 peptide
modifications: Aib at positions 2 and 13; K at position 20 conjugated at the epsilon-amino group with ([2-(2-Amino-ethoxy)-ethoxy]-acetyl)2-(γGlu)2-CO-(CH2)16-CO2H; C-terminal primary amide
notes: as for B1
B3: Example 8 (peptide)
peptide: B1 peptide with F22X
modifications: Aib at positions 2 and 13; K at position 20 conjugated at the epsilon-amino group with ([2-(2-Amino-ethoxy)-ethoxy]-acetyl)2-(γGlu)1-CO-(CH2)18-CO2H; 1-Nal at position 22; C-terminal primary amide
notes: as for B1
B4: Example 6 (peptide)
peptide: B1 peptide with F22X
modifications: Aib at positions 2 and 13; K at position 20 conjugated at the epsilon-amino group with ([2-(2-Amino-ethoxy)-ethoxy]-acetyl)2-(γGlu)1-CO-(CH2)16-CO2H; 1-Nal at position 22; C-terminal primary amide
notes: as for B1
B5: Example 7 (peptide)
peptide: B1 peptide with F22X
modifications: Aib at positions 2 and 13; K at position 20 conjugated at the epsilon-amino group with ([2-(2-Amino-ethoxy)-ethoxy]-acetyl)2-(γGlu)2-CO-(CH2)16-CO2H; 1-Nal at position 22; C-terminal primary amide
notes: as for B1
B6: Example 5 (peptide)
peptide: B1 peptide
modifications: Aib at positions 2 and 13; K at position 20 conjugated at the epsilon-amino group with ([2-(2-Amino-ethoxy)-ethoxy]-acetyl)2-(γGlu)2-CO-(CH2)18-CO2H; C-terminal primary amide
notes: as for B1
B7: Example 2 (peptide)
peptide: B1 peptide with F22X
modifications: Aib at positions 2 and 13; K at position 20 conjugated at the epsilon-amino group with ([2-(2-Amino-ethoxy)-ethoxy]-acetyl)2-(γGlu)2-CO-(CH2)18-CO2H; 1-Nal at position 22; C-terminal primary amide
notes: as for B1
B8: Example 1 (peptide)
peptide: B1 peptide
modifications: Aib at positions 2 and 13; K at position 20 conjugated at the epsilon-amino group with ([2-(2-Amino-ethoxy)-ethoxy]-acetyl)2-(γGlu)1-CO-(CH2)18-CO2H; C-terminal primary amide

Molecular target: T1, human glucagon-like peptide 1 receptor (human, UniProt P43220 24-463)
T1 construct: whole, on cells; also called hGLP-1R; Human GLP-1R
Assay: competition of I-125 GLP-1, SPA, hGLP-1R 293HEK membranes; Ki by Cheng-Prusoff
Procedure: The hGLP-1R cDNA is subcloned into the expression plasmid phD (Trans-activated expression of fully gamma-carboxylated recombinant human protein C, an antithrombotic factor. Grinnell, B. W., Berg, D. T., Walls, J. and Yan, S. B. Bio/Technology 5: 1189-1192, 1987). This plasmid DNA is transfected into 293HEK cells and selected with 200 μg/mL Hygromycin.
The binding buffer contains 25 mM HEPES, pH 7.4, 2.5 mM CaCl₂, 1 mM MgCl₂, 0.1% fatty acid free BSA, 0.003% Tween20, and Roche Complete™ Inhibitors without EDTA. […] The peptide analog is dissolved in 100% DMSO and serially diluted in 100% DMSO. Next, 10 μL diluted compounds of the present invention or 100% DMSO are transferred into Corning® 3632 clear bottom assay plates containing 40 μL assay binding buffer or cold glucagon (NSB at 1 μM final). […] Plates are read with a PerkinElmer Life and Analytical Sciences Trilux MicroBeta® scintillation counter after 12 hours of settling time at room temperature.
(§1) The IC₅₀ concentration is converted to Ki using the Cheng-Prusoff equation.

| Molecule | Ki [nM] |
| --- | --- |
| B1 | 427 |
| B2 | 714 |
| B3 | 307 |
| B4 | 365 |
| B5 | 352 |
| B6 | 158 |
| B7 | 344 |

Molecular target: T2, human glucose-dependent insulinotropic polypeptide receptor (human, UniProt P48546 22-466)
T2 construct: whole, on cells; also called hGIP-R; Human GIP-R
T2 sequence (looked up): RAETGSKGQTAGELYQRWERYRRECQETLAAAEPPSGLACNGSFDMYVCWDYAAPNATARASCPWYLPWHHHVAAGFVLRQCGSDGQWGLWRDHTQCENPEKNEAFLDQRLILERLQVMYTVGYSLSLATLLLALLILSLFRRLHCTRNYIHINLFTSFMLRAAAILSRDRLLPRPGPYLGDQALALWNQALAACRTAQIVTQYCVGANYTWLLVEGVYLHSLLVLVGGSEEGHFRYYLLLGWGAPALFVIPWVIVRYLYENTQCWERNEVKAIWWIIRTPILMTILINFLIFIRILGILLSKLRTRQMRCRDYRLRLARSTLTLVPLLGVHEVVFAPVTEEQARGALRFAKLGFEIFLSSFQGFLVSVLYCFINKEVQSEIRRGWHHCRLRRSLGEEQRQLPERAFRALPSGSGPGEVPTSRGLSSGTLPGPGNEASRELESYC
Assay: competition of [125I]GIP, SPA, hGIP-R CHO-S membranes; Ki by Cheng-Prusoff
Procedure: The compounds are serially diluted into binding buffer. Next, 10 μL diluted compound or 100% DMSO is transferred into Corning® 3632 clear bottom assay plates containing 40 μL assay binding buffer or cold GIP (NSB at 0.1 μM final). Then, 90 μL membranes (3 μg/well), 50 μL [|¹²⁵|] GIP (Perkin Elmer Life and Analytical Sciences at 0.15 nM final in reaction), and 50 μL of WGA beads (150 μg/well) is added, sealed, and mixed on a plate shaker for 1 minute. Plates are read with a MicroBeta® scintillation counter after 12 hours of settling time at room temperature.
as §1

| Molecule | Ki [nM] |
| --- | --- |
| B1 | 26.7 |
| B2 | 40.7 |
| B3 | 67.5 |
| B4 | 44.2 |
| B5 | 46.1 |
| B6 | 17.8 |
| B7 | 63.9 |

Molecular target: T3, GIP receptor of GLUTag cells (murine (the cell line is stated to be …, UniProt Q0P543 19-460))
T3 sequence (looked up): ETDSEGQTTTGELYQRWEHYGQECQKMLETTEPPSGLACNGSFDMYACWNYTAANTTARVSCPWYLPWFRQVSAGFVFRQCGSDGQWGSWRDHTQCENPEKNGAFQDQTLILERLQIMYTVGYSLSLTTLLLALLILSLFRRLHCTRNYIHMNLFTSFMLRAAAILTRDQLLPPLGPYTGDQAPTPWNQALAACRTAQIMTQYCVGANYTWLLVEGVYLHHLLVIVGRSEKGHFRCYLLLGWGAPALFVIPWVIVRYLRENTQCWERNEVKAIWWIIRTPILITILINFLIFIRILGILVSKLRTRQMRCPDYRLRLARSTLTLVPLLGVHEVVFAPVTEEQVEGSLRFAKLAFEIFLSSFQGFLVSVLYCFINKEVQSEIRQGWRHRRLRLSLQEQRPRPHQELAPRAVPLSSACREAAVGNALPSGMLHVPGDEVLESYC
Assay: cell-based or functional assay

| Molecule | Average EC50, cAMP in GLUTag cells [nM] |
| --- | --- |
| B1 | 1610 |
| B2 | 2190 |
| B5 | 2750 |
| B7 | 2920 |
| B8 | 1490 |

Molecular target: T1, human glucagon-like peptide 1 receptor
Assay: ratio of Ki on hGLP-1R to Ki on hGIP-R (reference), radioligand competition

| Molecule | Absolute ratio of hGLP-1R/hGIP-R |
| --- | --- |
| B3 | 4.5 |
| B4 | 8.3 |
| B5 | 7.6 |
| B7 | 5.4 |

Molecular target: T1, human glucagon-like peptide 1 receptor
Assay: Ki ratio hGLP-1R/hGIP-R normalized by 4.53 (native GLP-1/GIP), radioligand competition

| Molecule | Molar ratio of hGLP-1R/hGIP-R |
| --- | --- |
| B3 | 0.99 |
| B4 | 1.83 |
| B5 | 1.68 |
| B7 | 1.19 |

Molecular target: human glucose-dependent insulinotropic polypeptide receptor (human) (UniProt P48546)
Assay: cell-based or functional assay

| Molecule | Emax, % (intracellular cAMP) [%] |
| --- | --- |
| human GIP(1-42)NH2 (from UniProt P09681 52-93) (ligand) | 100 |

Molecular target: T4, human GLP-2 receptor (human, UniProt O95838 1-553)
T4 sequence (looked up): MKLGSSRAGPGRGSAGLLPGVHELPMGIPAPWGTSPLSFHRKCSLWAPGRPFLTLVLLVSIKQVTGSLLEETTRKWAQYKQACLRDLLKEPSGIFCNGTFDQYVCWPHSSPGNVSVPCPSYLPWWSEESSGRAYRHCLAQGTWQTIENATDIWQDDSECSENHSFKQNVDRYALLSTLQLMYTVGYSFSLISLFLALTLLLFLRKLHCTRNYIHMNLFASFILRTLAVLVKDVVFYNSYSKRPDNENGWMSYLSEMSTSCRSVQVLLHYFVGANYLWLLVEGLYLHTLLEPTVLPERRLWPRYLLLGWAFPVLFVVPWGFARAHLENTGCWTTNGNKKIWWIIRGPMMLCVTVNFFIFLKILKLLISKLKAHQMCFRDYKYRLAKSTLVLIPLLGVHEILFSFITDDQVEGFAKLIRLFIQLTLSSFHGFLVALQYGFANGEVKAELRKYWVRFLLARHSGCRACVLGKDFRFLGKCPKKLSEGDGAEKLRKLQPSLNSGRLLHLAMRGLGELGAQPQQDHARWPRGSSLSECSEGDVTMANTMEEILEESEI
Assay: cell-based or functional assay

| Molecule | Rel EC50 (intracellular cAMP) [nM] |
| --- | --- |
| C18-acylated human GLP-2 control (from UniProt P01275 146-178) (peptide) | 1.86 |
| B1 | 199 |
| B2 | 405 |
| B5 | 1800 |
| B7 | 1610 |

Molecular target: T1, human glucagon-like peptide 1 receptor
Assay: cell-based or functional assay

| Molecule | EC50 (intracellular cAMP) [nM] | Emax, % (intracellular cAMP) [%] |
| --- | --- | --- |
| B1 | 33.9 | 96.2 |
| B2 | – | 100 |
| B3 | 57.9 | 88.4 |
| B4 | 28.4 | 104 |
| B5 | 35.5 | 97.2 |
| B6 | – | 105 |
| B7 | 75.7 | 98.2 |
| B8 | – | 85.2 |

Molecular target: human glucagon receptor (human, UniProt P47871 26-477)
Sequence (P47871 26-477): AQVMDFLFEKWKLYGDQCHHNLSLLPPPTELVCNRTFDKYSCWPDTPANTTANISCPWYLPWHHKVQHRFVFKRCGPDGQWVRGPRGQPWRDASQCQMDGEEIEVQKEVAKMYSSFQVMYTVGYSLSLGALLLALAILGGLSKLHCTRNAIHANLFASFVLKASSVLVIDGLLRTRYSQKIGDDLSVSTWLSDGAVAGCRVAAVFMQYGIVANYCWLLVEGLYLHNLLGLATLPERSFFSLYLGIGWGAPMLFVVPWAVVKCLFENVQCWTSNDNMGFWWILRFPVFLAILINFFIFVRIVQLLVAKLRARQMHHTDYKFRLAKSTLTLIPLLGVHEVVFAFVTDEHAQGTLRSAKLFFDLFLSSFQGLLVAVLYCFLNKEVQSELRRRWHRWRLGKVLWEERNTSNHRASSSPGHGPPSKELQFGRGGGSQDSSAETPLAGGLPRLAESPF
Assay: cell-based or functional assay

| Molecule | EC50 (intracellular cAMP) [nM] |
| --- | --- |
| B3 | > 1000 |
| B4 | > 1000 |
| B5 | > 1000 |
| B7 | > 1000 |

Molecular target: T2, human glucose-dependent insulinotropic …
Assay: cell-based or functional assay

| Molecule | EC50 (intracellular cAMP) [nM] | Emax, % (intracellular cAMP) [%] |
| --- | --- | --- |
| B1 | 3.15 | 106 |
| B2 | 3.76 | – |
| B3 | 21.1 | 108 |
| B4 | 4.4 | 106 |
| B5 | 8.07 | 106 |
| B6 | 8.76 | 105 |
| B7 | 17.5 | 94.7 |
| B8 | – | 97.9 |
